US20120114659A1 (published 2012)

Molecular target: T1, human NPRA on HEK cells loaded with BNP (human, UniProt P16860 103-134)
T1 sequence: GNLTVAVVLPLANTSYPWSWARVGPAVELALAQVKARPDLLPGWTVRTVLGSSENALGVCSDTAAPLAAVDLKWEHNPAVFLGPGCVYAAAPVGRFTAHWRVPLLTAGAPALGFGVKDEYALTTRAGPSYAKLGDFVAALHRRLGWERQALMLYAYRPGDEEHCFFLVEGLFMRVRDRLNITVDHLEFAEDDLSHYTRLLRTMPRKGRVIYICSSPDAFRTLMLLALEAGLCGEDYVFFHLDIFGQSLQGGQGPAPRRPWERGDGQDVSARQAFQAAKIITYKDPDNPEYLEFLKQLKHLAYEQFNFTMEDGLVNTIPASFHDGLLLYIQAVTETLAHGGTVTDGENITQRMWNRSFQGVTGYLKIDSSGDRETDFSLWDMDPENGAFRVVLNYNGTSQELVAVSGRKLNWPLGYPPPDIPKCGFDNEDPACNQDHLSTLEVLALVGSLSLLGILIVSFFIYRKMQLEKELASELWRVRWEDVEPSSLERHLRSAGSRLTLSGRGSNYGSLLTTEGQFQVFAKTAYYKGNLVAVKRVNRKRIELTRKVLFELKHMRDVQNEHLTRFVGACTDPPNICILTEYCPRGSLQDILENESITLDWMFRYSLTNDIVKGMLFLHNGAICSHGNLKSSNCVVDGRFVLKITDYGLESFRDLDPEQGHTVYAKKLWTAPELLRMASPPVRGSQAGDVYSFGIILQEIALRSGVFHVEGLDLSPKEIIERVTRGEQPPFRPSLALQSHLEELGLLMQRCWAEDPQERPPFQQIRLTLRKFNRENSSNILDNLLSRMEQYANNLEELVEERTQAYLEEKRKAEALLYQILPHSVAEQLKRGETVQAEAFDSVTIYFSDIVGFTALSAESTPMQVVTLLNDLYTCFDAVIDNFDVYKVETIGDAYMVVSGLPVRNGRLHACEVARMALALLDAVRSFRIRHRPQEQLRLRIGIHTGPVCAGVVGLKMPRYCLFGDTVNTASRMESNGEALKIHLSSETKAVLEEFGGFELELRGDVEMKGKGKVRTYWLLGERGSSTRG
T1 sequence (peptide): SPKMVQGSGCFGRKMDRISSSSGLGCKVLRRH
Assay: cell-based or functional assay

B1: 5064 Fab (Fab, V domains shown)
VH: QVQLQQSGPGLVKPSQTLSLTCAISGDSVSSRSASWSWIRQSPGRGLEWLGRIYYRSKWYNDYAVSVKSRITINPDTSKNQFSLQLNSVTPEDTAVYYCARMDVPSFRYFDVWGQGTLVTVSS
VL: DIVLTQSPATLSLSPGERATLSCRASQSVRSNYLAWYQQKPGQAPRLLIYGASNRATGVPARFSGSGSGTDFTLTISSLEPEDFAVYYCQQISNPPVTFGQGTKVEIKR
  fold decrease of the EC50 of BNP (cGMP, HEK NPRA cells, 400 nM Fab): 2 fold
